System: mutant form of α-Gal A expressed in HEK-293 cells
Experiment: HEK assay (GLP HEK / Migalastat Amenability Assay): α-Gal A activity in lysates of transiently transfected HEK-293 cells incubated with or without 10 μM migalastat
Assay type: cell-based, human
Conditions: for Absolute increase (% WT) / Relative increase: 10 μM migalastat versus baseline; for Baseline α-Gal A activity (% WT): absence of migalastat; for Baseline α-Gal A activity (% WT) / 10 μM migalastat α-Gal A activity (% WT): percentage of baseline wild-type α-Gal A activity; for Baseline α-Gal A activity (% WT) / Baseline α-Gal A activity / 10 μM migalastat α-Gal A activity / 10 μM migalastat α-Gal A activity (% WT): mean ± SEM; for Baseline α-Gal A activity / 10 μM migalastat α-Gal A activity: lysates of HEK-293 cells transiently transfected with the mutant form; for Baseline α-Gal A activity: incubated 5 days in absence of migalastat; for 10 μM migalastat α-Gal A activity: incubated 5 days with 10 μM migalastat; for 10 μM migalastat α-Gal A activity (% WT): with 10 μM migalastat, 5 days
Procedure, shortened: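 Activity reported as 4-MU released (nmol/mg/hr), mean±SEM, from lysates of transiently transfected HEK-293 cells expressing mutant α-Gal A, cultured with or without 10 μM migalastat.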

Molecule | Absolute increase (% WT) | Relative increase | Baseline α-Gal A activity (% WT) | Baseline α-Gal A activity [nmol/mg/h] | 10 μM migalastat α-Gal A activity [nmol/mg/h] | 10 μM migalastat α-Gal A activity (% WT)
I354R (protein) MQLRNPELHLGCALALRFLALVSWDIPGARALDNGLARTPTMGWLHWERFMCNLDCQEEPDSCISEKLFMEMAELMVSEGWKDAGYEYLCIDDCWMAPQRDSEGRLQADPQRFPHGIRQLANYVHSKGLKLGIYADVGNKTCAGFPGSFGYYDIDAQTFADWGVDLLKFDGCYCDSLENLADGYKHMSLALNRTGRSIVYSCEWPLYMWPFQKPNYTEIRQYCNHWRNFADIDDSWKSIKSILDWTSFNQERIVDVAGPGGWNDPDMLVIGNFGLSWNQQVTQMALWAIMAAPLFMSNDLRHISPQAKALLQDKDVIAINQDPLGKQGYQLRQGDNFEVWERPLSGLAWAVAMRNRQEIGGPRSYTIAVASLGKGVACNPACFITQLLPVKRKLGFYEWTSRLRSHINPTGTVLLQLENTMQMSLKDLL | 27.8 | 2.4 | 20.1 ± 1.2 | 9157 ± 633 | 21854 ± 1398 | 47.9 ± 2.6
I359L (protein) MQLRNPELHLGCALALRFLALVSWDIPGARALDNGLARTPTMGWLHWERFMCNLDCQEEPDSCISEKLFMEMAELMVSEGWKDAGYEYLCIDDCWMAPQRDSEGRLQADPQRFPHGIRQLANYVHSKGLKLGIYADVGNKTCAGFPGSFGYYDIDAQTFADWGVDLLKFDGCYCDSLENLADGYKHMSLALNRTGRSIVYSCEWPLYMWPFQKPNYTEIRQYCNHWRNFADIDDSWKSIKSILDWTSFNQERIVDVAGPGGWNDPDMLVIGNFGLSWNQQVTQMALWAIMAAPLFMSNDLRHISPQAKALLQDKDVIAINQDPLGKQGYQLRQGDNFEVWERPLSGLAWAVAMINRQELGGPRSYTIAVASLGKGVACNPACFITQLLPVKRKLGFYEWTSRLRSHINPTGTVLLQLENTMQMSLKDLL | 25.6 | 1.7 | 39.1 ± 1.8 | 16254 ± 909 | 26791 ± 1713 | 64.7 ± 3.9
N355D (protein) MQLRNPELHLGCALALRFLALVSWDIPGARALDNGLARTPTMGWLHWERFMCNLDCQEEPDSCISEKLFMEMAELMVSEGWKDAGYEYLCIDDCWMAPQRDSEGRLQADPQRFPHGIRQLANYVHSKGLKLGIYADVGNKTCAGFPGSFGYYDIDAQTFADWGVDLLKFDGCYCDSLENLADGYKHMSLALNRTGRSIVYSCEWPLYMWPFQKPNYTEIRQYCNHWRNFADIDDSWKSIKSILDWTSFNQERIVDVAGPGGWNDPDMLVIGNFGLSWNQQVTQMALWAIMAAPLFMSNDLRHISPQAKALLQDKDVIAINQDPLGKQGYQLRQGDNFEVWERPLSGLAWAVAMIDRQEIGGPRSYTIAVASLGKGVACNPACFITQLLPVKRKLGFYEWTSRLRSHINPTGTVLLQLENTMQMSLKDLL | 16.7 | 3.3 | 7.3 ± 0.4 | 3366 ± 241 | 11004 ± 832 | 24 ± 1.6
Q357E (protein) MQLRNPELHLGCALALRFLALVSWDIPGARALDNGLARTPTMGWLHWERFMCNLDCQEEPDSCISEKLFMEMAELMVSEGWKDAGYEYLCIDDCWMAPQRDSEGRLQADPQRFPHGIRQLANYVHSKGLKLGIYADVGNKTCAGFPGSFGYYDIDAQTFADWGVDLLKFDGCYCDSLENLADGYKHMSLALNRTGRSIVYSCEWPLYMWPFQKPNYTEIRQYCNHWRNFADIDDSWKSIKSILDWTSFNQERIVDVAGPGGWNDPDMLVIGNFGLSWNQQVTQMALWAIMAAPLFMSNDLRHISPQAKALLQDKDVIAINQDPLGKQGYQLRQGDNFEVWERPLSGLAWAVAMINREEIGGPRSYTIAVASLGKGVACNPACFITQLLPVKRKLGFYEWTSRLRSHINPTGTVLLQLENTMQMSLKDLL | 41.5 | 1.9 | 42.8 ± 2.1 | 15264 ± 877 | 28922 ± 1194 | 84.3 ± 6.3
N355H (protein) MQLRNPELHLGCALALRFLALVSWDIPGARALDNGLARTPTMGWLHWERFMCNLDCQEEPDSCISEKLFMEMAELMVSEGWKDAGYEYLCIDDCWMAPQRDSEGRLQADPQRFPHGIRQLANYVHSKGLKLGIYADVGNKTCAGFPGSFGYYDIDAQTFADWGVDLLKFDGCYCDSLENLADGYKHMSLALNRTGRSIVYSCEWPLYMWPFQKPNYTEIRQYCNHWRNFADIDDSWKSIKSILDWTSFNQERIVDVAGPGGWNDPDMLVIGNFGLSWNQQVTQMALWAIMAAPLFMSNDLRHISPQAKALLQDKDVIAINQDPLGKQGYQLRQGDNFEVWERPLSGLAWAVAMIHRQEIGGPRSYTIAVASLGKGVACNPACFITQLLPVKRKLGFYEWTSRLRSHINPTGTVLLQLENTMQMSLKDLL | 9.9 | 3.5 | 4 ± 0.2 | 1822 ± 81 | 6399 ± 338 | 13.9 ± 0.6
N355Y (protein) MQLRNPELHLGCALALRFLALVSWDIPGARALDNGLARTPTMGWLHWERFMCNLDCQEEPDSCISEKLFMEMAELMVSEGWKDAGYEYLCIDDCWMAPQRDSEGRLQADPQRFPHGIRQLANYVHSKGLKLGIYADVGNKTCAGFPGSFGYYDIDAQTFADWGVDLLKFDGCYCDSLENLADGYKHMSLALNRTGRSIVYSCEWPLYMWPFQKPNYTEIRQYCNHWRNFADIDDSWKSIKSILDWTSFNQERIVDVAGPGGWNDPDMLVIGNFGLSWNQQVTQMALWAIMAAPLFMSNDLRHISPQAKALLQDKDVIAINQDPLGKQGYQLRQGDNFEVWERPLSGLAWAVAMIYRQEIGGPRSYTIAVASLGKGVACNPACFITQLLPVKRKLGFYEWTSRLRSHINPTGTVLLQLENTMQMSLKDLL | 26.6 | 2.8 | 15.2 ± 1 | 5994 ± 461 | 16930 ± 1745 | 41.8 ± 3.3
N355S (protein) MQLRNPELHLGCALALRFLALVSWDIPGARALDNGLARTPTMGWLHWERFMCNLDCQEEPDSCISEKLFMEMAELMVSEGWKDAGYEYLCIDDCWMAPQRDSEGRLQADPQRFPHGIRQLANYVHSKGLKLGIYADVGNKTCAGFPGSFGYYDIDAQTFADWGVDLLKFDGCYCDSLENLADGYKHMSLALNRTGRSIVYSCEWPLYMWPFQKPNYTEIRQYCNHWRNFADIDDSWKSIKSILDWTSFNQERIVDVAGPGGWNDPDMLVIGNFGLSWNQQVTQMALWAIMAAPLFMSNDLRHISPQAKALLQDKDVIAINQDPLGKQGYQLRQGDNFEVWERPLSGLAWAVAMISRQEIGGPRSYTIAVASLGKGVACNPACFITQLLPVKRKLGFYEWTSRLRSHINPTGTVLLQLENTMQMSLKDLL | 30.8 | 2.2 | 25.9 ± 1.6 | 11397 ± 817 | 24820 ± 1396 | 56.7 ± 2.8
R356L (protein) MQLRNPELHLGCALALRFLALVSWDIPGARALDNGLARTPTMGWLHWERFMCNLDCQEEPDSCISEKLFMEMAELMVSEGWKDAGYEYLCIDDCWMAPQRDSEGRLQADPQRFPHGIRQLANYVHSKGLKLGIYADVGNKTCAGFPGSFGYYDIDAQTFADWGVDLLKFDGCYCDSLENLADGYKHMSLALNRTGRSIVYSCEWPLYMWPFQKPNYTEIRQYCNHWRNFADIDDSWKSIKSILDWTSFNQERIVDVAGPGGWNDPDMLVIGNFGLSWNQQVTQMALWAIMAAPLFMSNDLRHISPQAKALLQDKDVIAINQDPLGKQGYQLRQGDNFEVWERPLSGLAWAVAMINLQEIGGPRSYTIAVASLGKGVACNPACFITQLLPVKRKLGFYEWTSRLRSHINPTGTVLLQLENTMQMSLKDLL | 43.7 | 2.8 | 24.4 ± 1 | 10680 ± 518 | 29548 ± 2017 | 68.1 ± 4.6
I359F (protein) MQLRNPELHLGCALALRFLALVSWDIPGARALDNGLARTPTMGWLHWERFMCNLDCQEEPDSCISEKLFMEMAELMVSEGWKDAGYEYLCIDDCWMAPQRDSEGRLQADPQRFPHGIRQLANYVHSKGLKLGIYADVGNKTCAGFPGSFGYYDIDAQTFADWGVDLLKFDGCYCDSLENLADGYKHMSLALNRTGRSIVYSCEWPLYMWPFQKPNYTEIRQYCNHWRNFADIDDSWKSIKSILDWTSFNQERIVDVAGPGGWNDPDMLVIGNFGLSWNQQVTQMALWAIMAAPLFMSNDLRHISPQAKALLQDKDVIAINQDPLGKQGYQLRQGDNFEVWERPLSGLAWAVAMINRQEFGGPRSYTIAVASLGKGVACNPACFITQLLPVKRKLGFYEWTSRLRSHINPTGTVLLQLENTMQMSLKDLL | 14.1 | 2.1 | 13 ± 1 | 6138 ± 568 | 13144 ± 1091 | 27 ± 1.6
